Where a chain is given by its changes, count along the chain named. Where two headings read alike, the source gives them in different places. Ends that are not written are not given here.
B1: CXCR20061 (VHH)
VHH: EVQLLESGGGLVQPGGSLRLSCAASGSIVRINTMGWYRQAPGKQRELVADITSGGNINYADSVKGRFTISRDNSKNTVYLQMNSLRPEDTAVYYCNAEIVVLVGVWTQRARTGNYWGQGTLVTVSS
notes: also called RD-HBC793; RDHBC 793
B2: 163E3 (VHH)
VHH: EVQLVESGGGLVQPGGSLRLSCVASGRIFSSNAMGWFRQAPGKEREFVAAITWRSGGSAYYADSAKGRFTISRDNAKNTVYLQMNSLKPEDTAVYYCAAGGSSWLSFPPDYWGQGTQVTVSS
notes: Tested as periplasmic extract (pAX50) and as purified His6-tagged protein (pAX100); also called 163E03; not shown: C-terminal c-myc tag and His6 tag coded by the vector
B3: CXCR20076 (VHH)
VHH: B2 VHH with V5L, V23A, A65V, A76S, K88R, Q117L
notes: also called RD-HBC794; MAb 794
B4: 54B12 (VHH)
VHH: EVQLVESGGGLVQAGGSLTLSCAVSGSTFRINTMGWYRRAPGKQRELVAARDRGGYINYVDSVKGRFTVSRDNAKPTMYLQMNSLKPEDTAVYYCHAGTQDRTGRNFDRWGQGTQVTVSS
notes: Tested as periplasmic extract (pAX50) and as purified His6-tagged protein (pAX100); also called 054B12; not shown: C-terminal c-myc tag and His6 tag coded by the vector
B5: CXCR20104 (VHH)
VHH: B4 VHH with V5L, A14P, T19R, R39Q, V69I, A74S, K86R, Q115L
notes: also called CXCR2104
B6: CXCR20079 (VHH)
VHH: EVQLLESGGGLVQPGGSLRLSCAASGSTFDFKVMGWYRQAPGKQREGVAAIRLSGNRHYAESVKGRFTISRANSKNTVYLQMNSLRPEDTAVYYCKVNIRGQDYWGQGTLVTVSS
notes: also called RD-HBC792; RDHBC 792

Tests used:
Human CXCR2 [1] = biological target: T1, Human CXCR2 (human, UniProt P25025 1-360); test: cell-based or functional assay
T1 sequence: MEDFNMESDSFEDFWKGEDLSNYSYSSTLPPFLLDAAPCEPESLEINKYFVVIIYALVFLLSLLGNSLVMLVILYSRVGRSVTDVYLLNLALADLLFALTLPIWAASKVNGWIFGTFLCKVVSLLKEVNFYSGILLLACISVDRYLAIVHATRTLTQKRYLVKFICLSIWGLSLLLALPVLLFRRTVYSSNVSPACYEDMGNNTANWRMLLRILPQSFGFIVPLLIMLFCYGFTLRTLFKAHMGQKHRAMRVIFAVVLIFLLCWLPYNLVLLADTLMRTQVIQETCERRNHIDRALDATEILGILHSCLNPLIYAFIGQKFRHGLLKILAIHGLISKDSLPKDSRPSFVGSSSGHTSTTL

Cynomolgus CXCR2 [2] = biological target: T2, Cynomolgus CXCR2 (cynomolgus, UniProt Q28519 3-353 (rhesus entry)); test: cell-based or functional assay
T2 chain: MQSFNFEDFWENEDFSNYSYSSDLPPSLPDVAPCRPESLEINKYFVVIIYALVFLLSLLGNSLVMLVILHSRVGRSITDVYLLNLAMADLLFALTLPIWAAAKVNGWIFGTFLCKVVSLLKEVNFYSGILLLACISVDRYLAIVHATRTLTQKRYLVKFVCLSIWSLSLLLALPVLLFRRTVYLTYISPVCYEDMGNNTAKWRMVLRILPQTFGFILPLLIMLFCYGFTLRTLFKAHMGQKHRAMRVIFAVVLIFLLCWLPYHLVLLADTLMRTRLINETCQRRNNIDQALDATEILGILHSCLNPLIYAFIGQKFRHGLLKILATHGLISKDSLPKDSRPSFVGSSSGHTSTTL

Human CXCR2 [3] = biological target: T1, Human CXCR2; test: FACS hGro-α competition
Cynomolgus CXCR2 [4] = biological target: T2, Cynomolgus CXCR2; test: FACS hGro-α competition
Human CXCR2 [5] = biological target: T1, Human CXCR2; test: immunoluminescence, HEK-293T with wild type receptor, 1.0 ug/ml, anti-myc detection
Human CXCR2 [6] = biological target: T1, Human CXCR2; test: cell-based or functional assay; remark: listed apart in the source
Cynomolgus CXCR2 [7] = biological target: T2, Cynomolgus CXCR2; test: cell-based or functional assay
Human CXCR2 [8] = biological target: T1, Human CXCR2; test: cell-based or functional assay; remark: listed apart in the source
Cynomolgus CXCR2 [9] = biological target: T2, Cynomolgus CXCR2; test: cell-based or functional assay
Human CXCR2 [10] = biological target: T1, Human CXCR2; test: cell-based or functional assay; remark: listed apart in the source
Human CXCR2 [11] = biological target: T1, Human CXCR2; test: cell-based or functional assay; remark: listed apart in the source
Cynomolgus CXCR2 [12] = biological target: T2, Cynomolgus CXCR2; test: cell-based or functional assay
Human CXCR2 [13] = biological target: T1, Human CXCR2; test: FACS hGro-α competition; remark: listed apart in the source
Cynomolgus CXCR2 [14] = biological target: T2, Cynomolgus CXCR2; test: FACS hGro-α competition
Human 1to19 peptide [15] = biological target: T3, Human 1to19 peptide (human); test: peptide ELISA of Table 8 (ratio 0.6)
T3 construct: First 19 N-terminal amino acids of human CXCR2, captured on neutravidin; also called human CXCR2 1 to19 peptide; 1-19 Nter peptide
T3 peptide: MEDFNMESDSFEDFWKGED-biotin

Human CXCR2 [16] = biological target: T1, Human CXCR2; test: FACS competition vs 3 nM FMAT-Blue Gro-α
Procedure: (§1) Purified monovalent anti-CXCR2Nanobodies were titrated against 3 nM FMAT-Blue-labeled Gro-α in the FACS ligand competition assay on human and cynomolgus CXCR2 (Table 10). On human CXCR2, blocking potencies range between double digit nM and sub-nM whereas on cynomolgus CXCR2, they range between single and double digit nM.

Cynomolgus CXCR2 [17] = biological target: T2, Cynomolgus CXCR2; test: FACS competition vs 3 nM FMAT-Blue Gro-α
Procedure: as §1

Human CXCR2 [18] = biological target: T1, Human CXCR2; test: FACS, periplasmic extract vs FMAT Blue Gro-α
Procedure, shortened: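 Cells (2×10⁵) preincubated 30 min at 4 °C with ½-diluted periplasmic extracts in PBS/10% FBS. An equal volume of 6 nM FMAT Blue-labelled human Gro-α was then added for another 30 min at 4 °C in the dark. After washing, dead cells were excluded with propidium iodide and binding read by flow cytometry.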

Human 1to19 peptide [19] = biological target: T3, Human 1to19 peptide; test: ELISA, periplasmic extract on biotinylated peptide
Procedure, shortened: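 Neutravidin-coated, casein-blocked plates captured 100 nM biotinylated human 1–19 peptide; 10-fold dilutions of periplasmic Nanobody extracts bound 1 h. Detection via mouse anti-myc then anti-mouse-HRP; value is ratio of binding signal over an irrelevant control Nanobody.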

Human CXCR2 [20] = biological target: T1, Human CXCR2; test: immunoluminescence, HEK-293T with wild type receptor, 2.0 ug/ml, anti-myc detection
Human CXCR2 [21] = biological target: T1, Human CXCR2; test: cell-based or functional assay; remark: listed apart in the source
Cynomolgus CXCR2 [22] = biological target: T2, Cynomolgus CXCR2; test: cell-based or functional assay
Cynomolgus CXCR2 [23] = biological target: T2, Cynomolgus CXCR2; test: FACS hGro-α competition
Human CXCR2 [24] = biological target: T1, Human CXCR2; test: cell-based or functional assay; remark: listed apart in the source
Cynomolgus CXCR2 [25] = biological target: T2, Cynomolgus CXCR2; test: cell-based or functional assay
Human CXCR2 [26] = biological target: T1, Human CXCR2; test: FACS hGro-α competition; remark: listed apart in the source
Cynomolgus CXCR2 [27] = biological target: T2, Cynomolgus CXCR2; test: FACS hGro-α competition

Binder	Signal:Background (Human CXCR2 [5]) [ratio]	FLIPR % inhibition max (Human CXCR2 [6]) [%]	FLIPR IC50 (GRO-α induced calcium release) (Human CXCR2 [6]) [nM]	[35S]GTPγS % inhibition max (GRO-α) (Human CXCR2 [6]) [%]	[35S]GTPγS IC50 (GRO-α) (Human CXCR2 [6]) [nM]	FLIPR % inhibition max (Cynomolgus CXCR2 [7]) [%]	FLIPR IC50 (GRO-α induced calcium release) (Cynomolgus CXCR2 [7]) [nM]	Human WBSC IC50 (rhGROα) (Human CXCR2 [8]) [nM]	Cynomologus WBSC IC50 (rhGROα) (Cynomolgus CXCR2 [9]) [nM]	FLIPR hGro-α IC50 (Human CXCR2 [11]) [nM]	FLIPR hGro-α IC50 (Cynomolgus CXCR2 [12]) [nM]	IC50 (Human CXCR2 [13]) [nM]	IC50 (Cynomolgus CXCR2 [14]) [nM]	% inhibition of max (Human CXCR2 [16]) [%]	IC50 (Human CXCR2 [16]) [nM]	% inhibition of max (Cynomolgus CXCR2 [17]) [%]	IC50 (Cynomolgus CXCR2 [17]) [nM]	ratio of binding signal relative to blank control (Human 1to19 peptide [19]) [ratio]	FLIPR hGro-α IC50 (Human CXCR2 [21]) [nM]	FLIPR hGro-α IC50 (Cynomolgus CXCR2 [22]) [nM]	further results
B1	6.9	–	–	–	–	–	–	–	–	–	–	–	–	–	–	–	–	–	–	–	FLIPR hGro-α IC50 (Human CXCR2 [1]): 66 nM; FLIPR hGro-α IC50 (Cynomolgus CXCR2 [2]): 350 nM; IC50 (Human CXCR2 [3]): 15 nM; IC50 (Cynomolgus CXCR2 [4]): 62 nM
B2	–	100	44.3	100	64.7	100	158	9.4	> 100	35	150	10	22	92.4	8.96	83.5	14.8	0.6	–	–	Human Chemotaxis IC50 (GROα) (Human CXCR2 [8]): 9.3 nM; IC50 (M) at 5 nM GROα (inhibition of GRO-α, FIG. 2) (Human CXCR2 [10]): 3.03e-08 M; IC50 (M) at 15 nM GROα (inhibition of GRO-α, FIG. 2) (Human CXCR2 [10]): 4.04e-08 M; IC50 (M) at 45 nM GROα (inhibition of GRO-α, FIG. 2) (Human CXCR2 [10]): 7.54e-08 M; IC50 (M) at 150 nM GROα (inhibition of GRO-α, FIG. 2) (Human CXCR2 [10]): 1.87e-07 M; binding result (Human 1to19 peptide [15]): no binding; FACS Gro-α competition (% inhibition) (Human CXCR2 [18]): 80.1%
B3	–	–	–	–	–	–	–	–	–	31	100	16	25	–	–	–	–	–	–	–	Signal:Background (Human CXCR2 [20]): 20 ratio
B4	–	100	153	71.8	15.4	100	4080	19.7	> 100	–	–	–	–	35	0.857	63	39.5	75.5	150	1100	IC50 (Cynomolgus CXCR2 [23]): 33 nM
B5	–	–	–	–	–	–	–	–	–	–	–	–	–	–	–	–	–	–	59	3500	IC50 (Cynomolgus CXCR2 [23]): 13 nM
B6	13	–	–	–	–	–	–	–	–	–	–	–	–	–	–	–	–	–	–	–	FLIPR hGro-α IC50 (Human CXCR2 [24]): 10 nM; FLIPR hGro-α IC50 (Cynomolgus CXCR2 [25]): 450 nM; IC50 (Human CXCR2 [26]): 0.8 nM; IC50 (Cynomolgus CXCR2 [27]): 2.8 nM

From patent US20130330346A1 (Novartis, published 2013)
